Measured values taken from patent US20230270828A1, “COMPOSITION FOR USE IN THE TREATMENT OF VIRAL INFECTIONS” (BICT S.R.L., priority 2020, published 2023).
Read-outs that look alike come from different tables or passages of the source. Marks after values point to notes of the source that are not given here.

What was measured:
SARS-CoV-2 = type: cell-based
[1] = tested on: Vero cells (Monkey Kidney Epithelial Cells); settings: Vero cells

B1: lactoferrin (protein, UniProt P24627 20-708, looked up)
Lactotransferrin: APRKNVRWCTISQPEWFKCRRWQWRMKKLGAPSITCVRRAFALECIRAIAEKKADAVTLDGGMVFEAGRDPYKLRPVAAEIYGTKESPQTHYYAVAVVKKGSNFQLDQLQGRKSCHTGLGRSAGWIIPMGILRPYLSWTESLEPLQGAVAKFFSASCVPCIDRQAYPNLCQLCKGEGENQCACSSREPYFGYSGAFKCLQDGAGDVAFVKETTVFENLPEKADRDQYELLCLNNSRAPVDAFKECHLAQVPSHAVVARSVDGKEDLIWKLLSKAQEKFGKNKSRSFQLFGSPPGQRDLLFKDSALGFLRIPSKVDSALYLGSRYLTTLKNLRETAEEVKARYTRVVWCAVGPEEQKKCQQWSQQSGQNVTCATASTTDDCIVLVLKGEADALNLDGGYIYTAGKCGLVPVLAENRKSSKHSSLDCVLRPTEGYLAVAVVKKANEGLTWNSLKDKKSCHTAVDRTAGWNIPMGLIVNQTGSCAFDEFFSQSCAPGADPKSRLCALCAGDDQGLDKCVPNSKEKYYGYTGAFRCLAEDVGDVAFVKNDTVWENTNGESTADWAKNLNREDFRLLCLDGTRKPVTEAQSCHLAVAPNHAVVSRSDRAAHVKQVLLHQQALFGKNGKNCPDKFCLFKSETKNLLFNDNTECLAKLGGRPTYEEYLGTEYVTAIANLKKCSTSPLLEACAFLTR
notes: multifunctional globular protein of the transferrin family, 80 KDa
Mean ΔCt (SARS-CoV-2; 0.59 mg/ml, scheme A (preincubation of virus with compound)): 0.23 | Mean ΔCt (SARS-CoV-2; 0.59 mg/ml, scheme B+C (during and after inoculum)): 0.04 | Mean ΔCt (SARS-CoV-2; 0.59 mg/ml, scheme B+C+D (during, after inoculum and repeated)): −0.25 | Mean ΔCt (SARS-CoV-2; 1.17 mg/ml, scheme A (preincubation of virus with compound)): 0.76 | Mean ΔCt (SARS-CoV-2; 1.17 mg/ml, scheme B+C (during and after inoculum)): −0.08 | Mean ΔCt (SARS-CoV-2; 1.17 mg/ml, scheme B+C+D (during, after inoculum and repeated)): −0.21 | Mean ΔCt (SARS-CoV-2; 2.34 mg/ml, scheme A (preincubation of virus with compound)): 0.42 | Mean ΔCt (SARS-CoV-2; 2.34 mg/ml, scheme B+C (during and after inoculum)): −0.28 | Mean ΔCt (SARS-CoV-2; 2.34 mg/ml, scheme B+C+D (during, after inoculum and repeated)): −0.47 | Mean ΔCt (SARS-CoV-2; 4.68 mg/ml, scheme A (preincubation of virus with compound)): 0.25 | Mean ΔCt (SARS-CoV-2; 4.68 mg/ml, scheme B+C (during and after inoculum)): −1.52 | Mean ΔCt (SARS-CoV-2; 4.68 mg/ml, scheme B+C+D (during, after inoculum and repeated)): −2.47 | CC10 ([1]; 72 h, MTT): >4.68§ mg/ml | CC50 ([1]; 72 h, MTT): >4.68§ mg/ml | maximum nontoxic concentration (assumed) ([1]; based on CC50/CC10 data): 4.68 mg/mL
